Here are results for two molecules from publication PMC10411625, “Rationally designed stapled peptides allosterically inhibit PTBP1–RNA-binding†” (Chemical Science, 2023).

Details in all cases: both partners purified
For experiment [1], the target named is T1, PTBP1 RRM1 (single first RNA-recognition motif with the α3-helix) (human).
T1 chain: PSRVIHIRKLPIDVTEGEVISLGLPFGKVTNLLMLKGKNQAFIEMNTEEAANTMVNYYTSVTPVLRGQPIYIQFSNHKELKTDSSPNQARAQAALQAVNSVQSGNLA
Description: MST; microscale thermophoresis of P-6F with the PTBP1 constructs.

In experiment [2] the target is PTBP1 RRM12–L151G mutant (human). Described as above.
For experiment [3], the target named is T1, PTBP1 RRM1 (single first …). Description: fluorescence polarisation; direct binding: FITC-labelled P-6F titrated with the PTBP1 construct. (In general: In fluorescence polarisation assays a small probe gives low polarisation when free and higher when bound to something large.)
Experiment [4] concerns the target PTBP1 RRM12–L151G mutant (human). Described as above.
The target of experiment [5] is T2, PTBP1 RRM1 and 2 combined (RRM12) (human).
T2 construct: Methods and construct limits are not in the main text (supplementary file)
Nature of the experiment: fluorescence polarisation; competitive: peptide varied against RRM12 and the FAM-labelled RNA-2 tracer; Ki from loss of RNA binding.

Positions of bridges follow the written chain, without caps; N, C: chain ends. Non-standard residues stand in square brackets, D forms with d. No end group written: not given here. S5 = C=CCCC[C@](C)(N)C(=O)O

B1: P-6F, FITC-labeled variant of P-6 (peptide)
chain: NQARAQAALQAVN
modifications: also: stitched hydrocarbon staple linking residues 145, 149 and 153, FITC label, place not given here
By Kd is commonly meant the equilibrium constant for the complex coming apart. Consider B1, for which the Kd in experiment [1] worked out at 98.1 µM; with PTBP1 RRM12–L151G mutant [2], 44.5 µM; in experiment [3] it was 18.6 µM; in the experiment with PTBP1 RRM12–L151G mutant [4], 20.4 µM.

The term Ki denotes the equilibrium dissociation constant of an inhibitor or competing ligand from its target. For NQ[S5]RAQ[S5]ALQAVN-NH2 (staple 3-7; also: staple alkene reduced) [P-2, i, i + 4 hydrocarbon-stapled peptide derived from the PTBP1 α3-helix], the Ki in experiment [5] turned out to be 11.6 µM.
